Data on two molecules can be found in article PMC12152530, “Efficient One‐Step Production of 7S,17S‐ and 10S,17S‐Dihydroxydocosahexaenoic Acids by a Double‐Oxygenating 15S‐Lipoxygenase From Chlamydomonas incerta” (Biotechnology and Bioengineering, 2025).

In data set [1] the target is T1, V. carteri f. nagariensis LOX (D8U0N8) (Volvox carteri, UniProt D8U0N8).
T1 construct: gene VOLCADRAFT_105417; synthesized gene in pET-28a(+), expressed in E. coli ER2566
T1 sequence (D8U0N8 1-1056): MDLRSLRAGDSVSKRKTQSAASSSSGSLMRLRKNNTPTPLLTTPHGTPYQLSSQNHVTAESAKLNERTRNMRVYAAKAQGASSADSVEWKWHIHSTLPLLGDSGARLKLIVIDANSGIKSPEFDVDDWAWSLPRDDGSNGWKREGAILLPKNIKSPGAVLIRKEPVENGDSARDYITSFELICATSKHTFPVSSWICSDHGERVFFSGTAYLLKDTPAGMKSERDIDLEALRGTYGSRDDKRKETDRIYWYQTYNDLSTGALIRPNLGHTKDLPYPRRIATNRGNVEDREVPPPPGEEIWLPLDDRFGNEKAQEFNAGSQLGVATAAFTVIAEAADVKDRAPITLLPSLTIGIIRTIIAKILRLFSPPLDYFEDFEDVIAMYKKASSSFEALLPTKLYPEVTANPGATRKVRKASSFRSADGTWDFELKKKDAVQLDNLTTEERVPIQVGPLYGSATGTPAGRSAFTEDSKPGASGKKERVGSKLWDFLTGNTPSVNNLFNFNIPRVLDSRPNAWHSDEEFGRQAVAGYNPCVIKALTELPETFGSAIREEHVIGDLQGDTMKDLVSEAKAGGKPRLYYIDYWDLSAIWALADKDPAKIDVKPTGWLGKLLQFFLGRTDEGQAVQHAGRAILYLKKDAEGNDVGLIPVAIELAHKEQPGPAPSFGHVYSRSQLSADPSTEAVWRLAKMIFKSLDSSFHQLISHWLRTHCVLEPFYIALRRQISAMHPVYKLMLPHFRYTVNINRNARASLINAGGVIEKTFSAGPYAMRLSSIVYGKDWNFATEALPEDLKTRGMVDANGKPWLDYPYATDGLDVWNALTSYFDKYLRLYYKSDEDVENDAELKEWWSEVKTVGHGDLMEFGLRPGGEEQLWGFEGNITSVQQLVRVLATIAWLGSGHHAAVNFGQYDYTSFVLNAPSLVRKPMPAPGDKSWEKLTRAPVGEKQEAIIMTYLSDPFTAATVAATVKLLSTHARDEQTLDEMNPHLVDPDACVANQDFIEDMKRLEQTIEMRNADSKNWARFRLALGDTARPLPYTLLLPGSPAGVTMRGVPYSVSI
Put plainly: product analysis after reaction with ARA. The class given is cell-based. Conditions: enzyme preparation not stated; products HETE and DiHETE.

Substrate in data set [2]: CCCCC/C=C\C/C=C\C/C=C\C/C=C\CCCC(=O)O
Put plainly: purified protein. The class given is biochemical, Chlamydomonas incerta. Conditions: 50 mM HEPPS pH 7.5, 35°C, 5 min, substrate 0.05-0.2 mM, product 15S-HETE (first oxygenation).

Substrate in data set [3]: CC/C=C\C/C=C\C/C=C\C/C=C\C/C=C\CCCC(=O)O
Put plainly: purified protein. Conditions: 50 mM HEPPS pH 7.5, 35°C, 5 min, substrate 0.05-0.2 mM, product 15S-HEPA (first oxygenation). The class given is biochemical, Chlamydomonas incerta.

Substrate in data set [4]: CC/C=C\C/C=C\C/C=C\C/C=C\C/C=C\C/C=C\CCC(=O)O
Put plainly: purified protein. The class given is biochemical, Chlamydomonas incerta. Conditions: 50 mM HEPPS pH 7.5, 35°C, 5 min, substrate 0.05-0.2 mM, product 17S-HDHA (first oxygenation).

As a reminder, the Km is the substrate concentration at which the rate is half of its maximum. For orientation: kcat means the number of substrate molecules converted per active site and unit of time at saturation. For orientation: kcat/Km means the second-order rate constant that governs catalysis at low substrate concentration.

Take `CCCCC/C=C\C/C=C\C/C=C\C/C=C\CCCC(=O)O` [ARA]: in data set [1], the “product analysis after reaction with ARA” value is “only those from V. carteri f. nagariensis (D8U0N8)”.

B1: C. incerta 15S-LOX (Chlamydomonas incerta) (protein)
chain: MNGAHSPGEVAVWKASIESSAPLLGDTGTRLEIVVIDLDTDRRSEPTNVDSWRPPVLESGPGSSTARSGASSGSGTSGWKREGRLPLPADFLTPGAVLVRKSRTVDGNASVDFIGTIKLVSATKVFHFPVHSWVSSDHDWRVFFEGTAYLPAHTPPSLRDERQRELQELQGTPATRTLERRPADRIYWYQTYDDLSSAGEGGYRPALGATARRPYPRRIATNRGAADGHPDREKPPVKAGDKPWLPYDEQFSFDKAADFNGDTLTAALPAAFSFIAEAGDQRHLTWLNLLPTAVHGLVRNVLRAVLGYAEPPAANFDSFEDVLAFFGEDAASRGSSMAPTQLYPAGQEAAMKGFGAPHDPRNPAPFKTASGAWDFRLNSAAAAAINDQIAADRVGPVPDSATGGPSSGAATAATAFAATAAAATAAGAPAAAITAPPQPGVPNLIGLLGSAVWRRLTNDPSHDINDLLYFPVPRVVDGRPDAWYTDEEYGRQALAGYHPTAITALTQLPEAFGSAIRAHHVEAELQGSSLEALVAAAAGGAKPRLYLIDHWDLSAYWQEAEEEAEAARKAGRKPPSAVQHAGRCLFYLRKDEVTGEDTALVPIAIELAHPGTHKASNGTSAPLPPTAGEVYARSELVASPQTLAVWRLAKAVFRSLDTSIHQLVAHFNRTHAALEPFLIAMRRQMSVMHPITKLMLPHFRYTLNINRNARASLINAGGIIEKTFSAGPFAMRLASAVYGKSWTFAGQALPEDLRERGMLDAAGRPWLDYPFAIDGLDTWAALTAYFDQYVSLYYDGDGAVLEDGELQAWWDEVKTEGHPDIVAFGLKSEQQVWGFTGPIAKRSDLVHVLATIAWLASGHHAAVNFGQYDFTGLILNASSLVRRPMPAPKEPAYKELTGAALGPPQERVFMTYLADPFSAVQVLATVKLLSAHARDEHTLDEANDYIVDPAAREANRAFIAAVKQLESAIETRNADPANWARYGLAAGTAAPLPYTLLMASSPPGVTMRGVPYSVSI
notes: synthesized gene in pET-28a(+), E. coli ER2566, His-Trap purified, His6 tag kept; 1016 residues plus six His, 109,248 (kDa [sic]), dimer 219 kDa
On to B1, for which, in the data set “purified protein [2]”, the Km stood at 101 ± 0.02 µM, the kcat was found to be 149 ± 0.2 s⁻¹ and the kcat/Km came to 1.47e+06 ± 100000 M⁻¹ s⁻¹. In addition, in the data set “purified protein [3]”, the Km worked out at 191 ± 0.1 µM, the kcat is 143 ± 0.2 s⁻¹ and the specificity constant (kcat/Km) was found to be 750000 ± 100000 M⁻¹ s⁻¹. Besides, in the data set “purified protein [4]”, the Km is 98.5 ± 0.1 µM, the kcat is 121 ± 0.2 s⁻¹ and the kcat/Km turned out to be 980000 ± 100000 M⁻¹ s⁻¹.
